The target in experiment [1] is T1, human plasma kallikrein (human, UniProt P03952 20-638). The experiment can be described thus: comparison of Ki,app values, reference aprotinin.
In another experiment the target is human plasma factor XIa (human, UniProt P03951 19-625). Kind of experiment: protease inhibition, apparent Ki (Ki,app).
Experiment [2] has as its target porcine pancreatic kallikrein (porcine, UniProt P00752 8-246). Kind of experiment: protease inhibition, apparent Ki (Ki,app).
For experiment [3], the target named is T1, human plasma kallikrein. Kind of experiment: protease inhibition, apparent Ki (Ki,app).
A further experiment concerns the target human plasmin (human, UniProt P00747 97-810, limits assumed). Kind of experiment: protease inhibition, apparent Ki (Ki,app).
Experiment [4] has as its target T1, human plasma kallikrein. Kind of experiment: phage display selection.

Substitutions are numbered along the chain they refer to.

T1 sequence (P03952 20-638 limits assumed): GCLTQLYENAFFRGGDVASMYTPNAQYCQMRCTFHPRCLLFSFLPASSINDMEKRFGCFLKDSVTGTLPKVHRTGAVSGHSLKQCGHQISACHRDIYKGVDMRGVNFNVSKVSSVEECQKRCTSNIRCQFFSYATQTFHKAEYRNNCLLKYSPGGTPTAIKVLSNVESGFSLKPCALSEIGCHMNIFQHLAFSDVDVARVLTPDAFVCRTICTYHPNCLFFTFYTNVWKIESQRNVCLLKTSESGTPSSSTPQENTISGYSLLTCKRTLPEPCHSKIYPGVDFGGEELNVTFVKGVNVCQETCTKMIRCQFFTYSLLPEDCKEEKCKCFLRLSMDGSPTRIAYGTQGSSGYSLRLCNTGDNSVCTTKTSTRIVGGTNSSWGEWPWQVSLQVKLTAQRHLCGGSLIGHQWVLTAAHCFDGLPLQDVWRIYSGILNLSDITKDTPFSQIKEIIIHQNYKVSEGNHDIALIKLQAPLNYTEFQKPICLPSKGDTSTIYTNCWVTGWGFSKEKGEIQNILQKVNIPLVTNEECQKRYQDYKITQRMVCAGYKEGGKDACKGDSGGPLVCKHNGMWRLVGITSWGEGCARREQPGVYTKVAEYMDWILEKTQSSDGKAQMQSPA
Sequence of porcine pancreatic kallikrein (P00752 8-246): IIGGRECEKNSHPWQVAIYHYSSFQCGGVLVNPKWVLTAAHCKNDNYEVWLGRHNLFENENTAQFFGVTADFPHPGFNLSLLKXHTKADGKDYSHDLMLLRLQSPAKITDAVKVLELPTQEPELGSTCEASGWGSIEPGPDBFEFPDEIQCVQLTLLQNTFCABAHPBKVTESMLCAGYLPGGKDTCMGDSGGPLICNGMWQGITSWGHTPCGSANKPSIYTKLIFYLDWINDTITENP
Sequence of human plasmin (P00747 97-810 limits assumed): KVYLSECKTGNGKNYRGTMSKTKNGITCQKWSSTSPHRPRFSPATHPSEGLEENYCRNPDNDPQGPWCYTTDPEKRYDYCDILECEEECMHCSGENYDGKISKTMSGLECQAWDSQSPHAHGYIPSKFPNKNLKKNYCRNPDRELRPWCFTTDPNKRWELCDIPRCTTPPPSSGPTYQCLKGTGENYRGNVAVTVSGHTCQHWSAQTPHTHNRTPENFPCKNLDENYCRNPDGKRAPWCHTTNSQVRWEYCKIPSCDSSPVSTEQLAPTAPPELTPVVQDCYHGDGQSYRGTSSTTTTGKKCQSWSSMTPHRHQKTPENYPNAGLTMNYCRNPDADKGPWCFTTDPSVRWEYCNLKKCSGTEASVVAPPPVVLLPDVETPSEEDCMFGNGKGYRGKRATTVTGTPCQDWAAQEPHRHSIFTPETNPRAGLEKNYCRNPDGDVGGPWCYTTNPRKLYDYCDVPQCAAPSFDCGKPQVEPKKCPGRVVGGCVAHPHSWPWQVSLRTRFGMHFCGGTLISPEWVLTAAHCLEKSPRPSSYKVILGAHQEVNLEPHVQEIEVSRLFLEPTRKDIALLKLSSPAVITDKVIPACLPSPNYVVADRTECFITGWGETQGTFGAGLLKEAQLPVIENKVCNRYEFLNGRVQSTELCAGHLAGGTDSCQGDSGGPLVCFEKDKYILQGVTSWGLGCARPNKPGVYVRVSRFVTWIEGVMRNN

B1: PEP-1 KI polypeptide (designed binder)
chain: EAMHSFCAFKADDGPCRAAHPRWFFNIFTRQCEEFIYGGCEGNQNRFESLEECKKMCTRD
notes: also called DX88
For the molecule B1, the “fold higher affinity (Ki,app) than aprotinin” value with human plasma kallikrein [1] came to 1000 fold. Moreover, the Ki was found to be 10 nM with human plasma factor XIa, 27000 nM in experiment [2], 0.044 nM with human plasma kallikrein [3] and 140 nM in the experiment with human plasmin.

B2: KKII/3#6 (designed binder)
chain: MHSFCAFKADDGHCKANHQRFFFNIFTRQCEEFSYGGCGGNQNRFESLEECKKMCTRD
notes: also called LACI(K1) variant
For B2, in the experiment with human plasma kallikrein [4], the binding result is recorded as “binds”.

B3: KKII/3#9 (designed binder)
chain: B2 chain
notes: also called LACI(K1) variant
As for B3, in the experiment with human plasma kallikrein [4], the binding result is “binds”.

B4: KKII/3#3 (designed binder)
chain: B2 chain with S34T
notes: also called LACI(K1) variant
As for B4, the binding result with human plasma kallikrein [4] is “binds”.

B5: KKII/3#2 (designed binder)
chain: B2 chain with H13P, Q19L
notes: also called LACI(K1) variant
Consider B5, for which, in the experiment with human plasma kallikrein [4], the binding result was “binds”.

B6: KKII/3#4 (designed binder)
chain: B2 chain with E32Q, S34T, G39A
notes: also called LACI(K1) variant
For B6, the binding result in the experiment with human plasma kallikrein [4] was “binds”.

B7: KKII/3#1 (designed binder)
chain: B2 chain with N17S, H18L, Q19P, S34I, G39E
notes: also called LACI(K1) variant
Turning to B7, the binding result with human plasma kallikrein [4] is on record as “binds”.

B8: KKII/3#10 (designed binder)
chain: B2 chain with A16G, N17A, Q19L, S34I, G39E
notes: also called LACI(K1) variant
Take B8: in the experiment with human plasma kallikrein [4], the binding result is on record as “binds”.

B9: KKII/3#5 (designed binder)
chain: B2 chain with N17S, H18L, Q19P, S34I
notes: also called LACI(K1) variant
For the molecule B9, the binding result in the experiment with human plasma kallikrein [4] is “binds”.

These data come from patent publication US20040053206A1 (DYAX, published 2004).
